Results on 1 molecule are retold here after paper PMC4865801.

The target in test [1] is hNav1.7/V948C (human).
In test [2] the target is hNav1.7 WT (human).
In test [3] the target is hNav1.7/ΔL955 (human).

For the molecule KKLITFILKKTREK [β4-peptide], the share of cells with resurgent currents (whole-cell patch clamp, 100 µM β4-peptide in the pipette, 50 nM ATX-II in the bath) in test [1] amounted to 55%; in test [2] it was 42%. Besides, in test [3], the cells with resurgent currents (whole-cell patch clamp, 100 µM β4-peptide in the pipette, 50 nM ATX-II in the bath) (out of 15 cells) is 1.
